Measured values as given in patent publication US12643954B2, “Anti-CD36 antibodies and their use to treat cancer” (ONA Therapeutics, S.L., priority 2020, dated 2026).

Key:
OVCAR-3 cells [1] = experiment: OVCAR-3 orthotopic mouse model of ovarian cancer (Example 7); type: in vivo
Protocol: (§1) Studies of the effects of the ONA-0-v1 anti-CD36 antibody on ovarian cancer were performed in NSG mice (immuno-deficient). The studies included only female mice. All mice were inoculated with commercially available OVCAR-3 (ATCC) cancer cells. OVCAR-3 cells were derived from a human progressive adenocarcinoma of the ovary (i.e., from an ovarian cancer). Prior to inoculation, the OVCAR-3 cells were cultured in a humidified incubator at 37° C. with 5% CO2, and were grown in RPMI-1640 supplemented with 5 μg ml^−1 penicillin/streptomycin, 0.01 mg/ml bovine inulin and 20% FBS (GIBCO).
For each mouse, a piece of an OVCAR-3 xenograft was implanted orthotopically. […] Mice implanted with OVCAR-3 also develop metastases in both the peritoneal wall and liver.
Treatment of the implanted mice began 23 days after implantation with the OVCAR-3 tumor pieces. Inoculated mice were divided into one of two treatment groups: vehicle injection control (n=9) or ONA-0-v1 treatment (n=9). Antibody treatments were administered via intraperitoneal (i.p.) injection daily at a dose of 3 mg/kg, while control mice received an equal volume of vehicle on the same schedule. Mice were sacrificed at the end of the treatment period. Upon sacrifice, organs and tissues were collected for performance of immunohistochemistry analysis.

HCT-116 cells = experiment: HCT-116 orthotopic mouse model of colon cancer (Example 8); type: in vivo
Protocol: Studies of the effects of the ONA-0-v1 anti-CD36 antibody on colon cancer were performed in BALB/c nude mice (immuno-deficient). The studies included only female mice. All mice were inoculated with commercially available HCT-116 (ATCC) cancer cells, transduced with a retroviral vector expressing luciferase. HCT-116 cells were derived from a human colorectal carcinoma (i.e., from a colon cancer). Prior to inoculation, the HCT-116 cells were cultured in a humidified incubator at 37° C. with 5% CO2, and were grown in McCoy's 5A medium supplemented with 5 μg ml^−1 penicillin/streptomycin and 10% FBS (GIBCO).
For each mouse, 2×10^6 HCT-116 cells were inoculated via orthotopic injection. Each mouse was imaged after inoculation and one week later and liver metastasis were confirmed by ex vivo luminescence prior to start of treatment. Treatment began 14 days after inoculation with the HCT-116 cells. Inoculated mice were divided into one of two treatment groups: vehicle injection control (n=10) or ONA-0-v1 treatment (n=10). Antibody treatments were administered via intraperitoneal (i.p.) injection daily at a dose of 3 mg/kg, while control mice received an equal volume of vehicle on the same schedule. At 7, 14, and 21 days after start of treatment, all mice were imaged via IVIS. Mice were sacrificed at the end of the treatment period (day 25). Upon sacrifice, organs and tissues were collected for performance of necropsy, ex-vivo IVIS, and histopathology.

[2] = target: T1, cells overexpressing human CD36 (Homo sapiens, UniProt P16671); experiment: FACS binding to cells overexpressing human CD36
T1 construct: expressed in transfected cells
T1 sequence (P16671 whole entry): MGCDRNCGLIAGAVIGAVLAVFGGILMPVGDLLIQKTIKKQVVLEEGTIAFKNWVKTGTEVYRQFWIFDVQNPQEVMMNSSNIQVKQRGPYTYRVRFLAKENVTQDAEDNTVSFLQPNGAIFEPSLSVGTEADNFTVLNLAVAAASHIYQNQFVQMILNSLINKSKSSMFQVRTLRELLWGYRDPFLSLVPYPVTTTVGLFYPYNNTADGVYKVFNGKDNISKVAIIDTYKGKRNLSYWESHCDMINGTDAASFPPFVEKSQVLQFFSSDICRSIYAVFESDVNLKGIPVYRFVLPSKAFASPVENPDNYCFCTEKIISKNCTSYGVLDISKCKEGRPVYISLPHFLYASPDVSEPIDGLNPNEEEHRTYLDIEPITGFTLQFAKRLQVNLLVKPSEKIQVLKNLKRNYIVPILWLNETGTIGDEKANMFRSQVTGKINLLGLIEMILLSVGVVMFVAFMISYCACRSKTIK
Protocol: For FACS analysis, cells were trypsinized, collected in a 15 mL tube and diluted in washing buffer (2% FBS in PBS). Cells were then centrifuged at 1500 rpm for 5 min at 4° C., supernatant was discarded, and cells were resuspended in fresh washing buffer. Anti-CD36 antibodies were either omitted (control wash buffer treatment) or serially diluted in washing buffer (dilution range up to 100 nM), and then added to the cells. Incubation was performed on ice for 1 hour. Cells were then centrifuged at 1500 rpm for 5 min at 4° C., supernatant was discarded, and cells were resuspended in fresh washing buffer. Finally, cells were incubated with a […] (BV421 Rat Anti-Mouse IgA, Becton Dickinson, reference 743293) diluted 1:100 in washing buffer, washed and analysed by FACS.

OVCAR-3 cells [3] = experiment: OVCAR-3 orthotopic mouse model of ovarian cancer (Example 9); type: in vivo
Protocol: as §1, with “ONA-0-v1 and 1G04” for “ONA-0-v1”, “antibodies” for “antibody”, “cancer). For each mouse, a piece of an OVCAR-3 xenograft was implanted orthotopically.” for “cancer).”, “insulin” for “inulin”
Treatment of the implanted mice began 7 days after implantation with the OVCAR-3 tumor pieces. Inoculated mice were divided into one of three treatment groups: vehicle injection control (n=9), ONA-0-v1 treatment (n=9), or 1G04 treatment (n=9). ONA-0-v1 antibody treatments were administered via intraperitoneal (i.p.) injection daily at a dose of 3 mg/kg. 1G04 antibody treatments were administered via i.p. injection TIW (three-times weekly) at a dose of 10 mg/kg. Control mice received an equal volume of vehicle daily. […] Mice were sacrificed at the end of the treatment period. Upon sacrifice, organs and tissues were collected for performance of necropsy and histopathology analysis.

B1: ONA-0-v1: murine IgA anti-CD36 antibody; heavy chain SEQ ID NO: 5, light chain SEQ ID NO: 7 (antibody)
heavy: QVQLKQSGADLVRPGASVKLSCKASGYTFTDYYINWVKQRPGQGLEWIARIYPGSGNTYYNEKFKGKATLTAEKSSSTAYMQLSSLTSEDSAVYFCARGIGGGFGMDYWGQGTSVTVSSESARNPTIYPLTLPPVLCSDPVIIGCLIHDYFPFGTMNVTWGKSGKDITTVNFPPALASGGRYTMSSQLTLPAVECPEGESVKCSVQHDSNPVQELDVNCSPTPPPPITIPSCQPSLSLQRPALEDLLLGSDASITCTLNGLRNPEGAAFTWEPSTGKDAVQKKAAQNSCGCYSVSSVLPGCAERWNSGASFKCTVTHPESGTLTGTIAKVTVNTFPPQVHLLPPPSEELALNELLSLTCLVRAFNPKEVLVRWLHGNEELSPESYLVFEPLKEPGEGATTYLVTSVLRVSAETWKQGDQYSCMVGHEALPMNFTQKTIDRLSGKPTNVSVSVIMSEGDGICY
light: SIVMTQTPKFLLVSAGDRITITCKASQSVSDDVAWYQQKPGQSPKLLIYYASNRYTGVPDRFTGSGYGTDFTFTISTVQAEDLAVYFCQQDYSSPLTFGAGTKLEIKRADAAPTVSIFPPSSEQLTSGGASVVCFLNNFYPKDINVKWKIDGSERQNGVLNSWTDQDSKDSTYSMSSTLTLTKDEYERHNSYTCEATHKTSTSPIVKSFNRNEC
modifications: ONA-0-v1 heavy chain; ONA-0-v1 light chain
For B1, the “average primary tumor weight” value (OVCAR-3 cells [1]; 3 mg/kg i.p. daily) was 1.058 g, the “decrease of primary tumor weight vs vehicle” value (OVCAR-3 cells [1]; 3 mg/kg i.p. daily) was 43% and the “SR (Sirius red) positive area of primary tumors” value (OVCAR-3 cells [1]; collagenous and fibrotic areas) was 22.5%. The “percent necrosis of primary tumors” value (OVCAR-3 cells [1]; histology, pathologist quantification) was “approximately 40.71%”, the “animals with large metastasis (>5 mm) in the peritoneal wall” value (OVCAR-3 cells [1]; macroscopic analysis) was “no large metastasis were detected” and the “animals with no metastasis in the peritoneal wall” value (OVCAR-3 cells [1]; macroscopic analysis) was 63%. For the same molecule, the “animals with small metastasis (1-2 mm) in the peritoneal wall” value (OVCAR-3 cells [1]; macroscopic analysis) was 38%, the large liver metastasis (OVCAR-3 cells [1]; macroscopic analysis) was 6% and the “mice without metastasis in the liver” value (OVCAR-3 cells [1]; macroscopic analysis) was 50%. For the same molecule, the small liver metastasis (OVCAR-3 cells [1]; macroscopic analysis) was 44%, the “in vivo total tumor bioluminescence over time” value (HCT-116 cells; 3 mg/kg i.p. daily, day 21) was “reduced the growth of the tumor” and the “ex vivo luminescence, kidney” value (HCT-116 cells; IVIS at sacrifice) was 1.08*10^6. For the same molecule, the “ex vivo luminescence, liver” value (HCT-116 cells; IVIS at sacrifice) was 9.02*10^7, the “ex vivo luminescence, lung” value (HCT-116 cells; IVIS at sacrifice) was 1.24*10^6 and the “ex vivo luminescence, spleen” value (HCT-116 cells; IVIS at sacrifice) was 1.79*10^8. For the same molecule, the “body weight as percent of starting body weight” value (HCT-116 cells; day 18) was 91.1%, the “ex vivo primary tumor bioluminescence, average radiance” value (HCT-116 cells; day 25) was 1.51*10^10 and the “percentage of mice with tumors in their liver” value (HCT-116 cells; ex vivo luminescence) was 60%. The “percentage of mice with tumors in their lungs” value (HCT-116 cells; ex vivo luminescence) was 60%, the “binding to cells overexpressing human CD36 (FACS)” value ([2]; antibodies at 100 nM) was “bound equivalently” and the “binding to cells overexpressing human CD36 (FACS)” value ([2]; serial dilution up to 100 nM) was “specifically bound”. The “decrease in total number of metastases relative to vehicle” value (OVCAR-3 cells [3]; ONA-0-v1 3 mg/kg i.p. daily, 1G04 10 mg/kg i.p. TIW) was “approximately 45%”, the “mice free of metastasis in the liver” value (OVCAR-3 cells [3]; macroscopic analysis) was 78% and the “mice having 1-2 mm metastasis in the liver” value (OVCAR-3 cells [3]; macroscopic analysis) was 17%. The “mice having 1-2 mm metastasis in the peritoneal wall” value (OVCAR-3 cells [3]; macroscopic analysis) was 19%, the “mice having 2-5 mm metastasis in the liver” value (OVCAR-3 cells [3]; macroscopic analysis) was 6% and the “mice having 2-5 mm metastasis in the peritoneal wall” value (OVCAR-3 cells [3]; macroscopic analysis) was 19%. For the same molecule, the “mice having <1 mm metastasis in the liver” value (OVCAR-3 cells [3]; macroscopic analysis) was “none”, the “mice having >5 mm metastasis in the peritoneal wall” value (OVCAR-3 cells [3]; macroscopic analysis) was 19% and the “mice metastasis-free in the peritoneal wall” value (OVCAR-3 cells [3]; macroscopic analysis) was 44%. For the same molecule, the “animals free of metastases in the lung” value (OVCAR-3 cells [3]; microscopic analysis) was 44%, the “mean metastasis number in the lungs per mouse” value (OVCAR-3 cells [3]; microscopic analysis) was 1.6 and the “weight of mice throughout the treatment period” value (OVCAR-3 cells [3]; mouse, in vivo) was “remained the same”. For the same molecule, the “total number of metastases counted” value (OVCAR-3 cells [3]; visual inspection of organs, sum per group) was 29.
